Molecular target: GST-SBP-SLBP (stem-loop binding protein) (Homo sapiens, UniProt Q14493 1-270)
Test: targeted RNA Bind-n-Seq; RBNS binding buffer: 25 mM Tris pH 7.5, 150 mM KCl, 3 mM MgCl2, 0.1% Tween, 0.5 mg/mL BSA, 1 mM DTT; 27 nM protein, 750 pM RNA pool; temperature not stated; high values mean tight binding
Conditions: protein: recombinant; tags: N-terminal GST and SBP (pGEX6P1-SBP)
Method in brief: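 Read counts per sequence supply the binding signal, defined as the DEseq fold change on a binary-logarithm scale. These counts came from RNA of a designed, T7-transcribed oligo pool at 750 pM that bound 27 nM of GST-SBP-tagged protein, made in Rosetta(DE3) pLysS E. coli and glutathione-purified, in RBNS binding buffer. The bound RNA was reverse transcribed with a 10-nucleotide barcoded primer, PCR-amplified and sequenced on a MiSeq with 200-cycle paired-end reads, then processed with FLASH and HISAT2 and collapsed by barcode.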

| Binder | binding signal |
| --- | --- |
| consensus (structured_RNA) RNA: GGUCACGUCUCAAUCAACUCCCAAAGGCCCUUUUCAGGGCCACCCAUCAACAGCUCGCAGUCAAG | 3.92 ± 0.166 log2 fold change |
| consensus (structured_RNA) RNA: GGUCACGUCUCAAUCAACUCCCAAAGGUCCUUUUCAGGACCACCCAUCAACAGCUCGCAGUCAAG | 3.59 ± 0.127 log2 fold change |
| consensus (structured_RNA) RNA: GGUCACGUCUCAAUCAACUCCCAAAGGUCUUUUUAAGGGCCACCCAUCAACAGCUCGCAGUCAAG | 1.43 ± 0.177 log2 fold change |
| consensus (structured_RNA) RNA: GGUCACGUCUCAAUCAACUCCCAAAGGCUUUUCUCAGGGCCACCCAUCAACAGCUCGCAGUCAAG | 1.31 ± 0.138 log2 fold change |
| consensus (structured_RNA) RNA: GGUCACGUCUCAAUCAACUCCCAAAGGUUCUUCUUAGAGCCACCCAUCAACAGCUCGCAGUCAAG | 2.28 ± 0.146 log2 fold change |
| consensus (structured_RNA) RNA: GGUCACGUCUCAAUCAACUCCCAAAGGUCCUUUUAAGGACCACCCAUCAACAGCUCGCAGUCAAG | 3.61 ± 0.128 log2 fold change |
| consensus (structured_RNA) RNA: GGUCACGUCUCAAUCAACUCCCAAAGGCUUUUUUAAGGGCCACCCAUCAACAGCUCGCAGUCAAG | 1.95 ± 0.161 log2 fold change |
| consensus (structured_RNA) RNA: GGUCACGUCUCAAUCAACUCCCAAAGGUCUUUCUGAAGGCCACCCAUCAACAGCUCGCAGUCAAG | 2.15 ± 0.13 log2 fold change |
| consensus (structured_RNA) RNA: GGUCACGUCUCAAUCAACUCCCAAAGGCUUUUUUAAGAGCCACCCAUCAACAGCUCGCAGUCAAG | 1.64 ± 0.15 log2 fold change |
| consensus (structured_RNA) RNA: GGUCACGUCUCAAUCAACUCCCAAAGGCCUUUCUAAGGGCCACCCAUCAACAGCUCGCAGUCAAG | 2.22 ± 0.143 log2 fold change |
| consensus (structured_RNA) RNA: GGUCACGUCUCAAUCAACUCCCAAAGGUUCUUCUUAGGACCACCCAUCAACAGCUCGCAGUCAAG | 2.26 ± 0.144 log2 fold change |
| consensus (structured_RNA) RNA: GGUCACGUCUCAAUCAACUCCCAAAGGUUUUUUUUAAAGCCACCCAUCAACAGCUCGCAGUCAAG | 2.23 ± 0.157 log2 fold change |
| consensus (structured_RNA) RNA: GGUCACGUCUCAAUCAACUCCCAAAGGUUUUUCUCAAAGCCACCCAUCAACAGCUCGCAGUCAAG | 2.22 ± 0.14 log2 fold change |
| consensus (structured_RNA) RNA: GGUCACGUCUCAAUCAACUCCCAAAGGCUCUUCUGAGGGCCACCCAUCAACAGCUCGCAGUCAAG | 2.28 ± 0.154 log2 fold change |
| consensus (structured_RNA) RNA: GGUCACGUCUCAAUCAACUCCCAAAGGCCUUUCUCAAGGCCACCCAUCAACAGCUCGCAGUCAAG | 3.84 ± 0.117 log2 fold change |
| consensus (structured_RNA) RNA: GGUCACGUCUCAAUCAACUCCCAAAGGUUUUUCUUAAAGCCACCCAUCAACAGCUCGCAGUCAAG | 1.97 ± 0.127 log2 fold change |
| consensus (structured_RNA) RNA: GGUCACGUCUCAAUCAACUCCCAAAGGCUUUUCUAAGGGCCACCCAUCAACAGCUCGCAGUCAAG | 1.52 ± 0.156 log2 fold change |

| Binder | binding signal |
| --- | --- |
| consensus (structured_RNA) RNA: GGUCACGUCUCAAUCAACUCCCAAAGGUCUUUCUAAGGACCACCCAUCAACAGCUCGCAGUCAAG | 1.6 ± 0.134 log2 fold change |
| consensus (structured_RNA) RNA: GGUCACGUCUCAAUCAACUCCCAAAGGUUCUUUUUAGGGCCACCCAUCAACAGCUCGCAGUCAAG | 2.15 ± 0.148 log2 fold change |
| consensus (structured_RNA) RNA: GGUCACGUCUCAAUCAACUCCCAAAGGUUUUUCUGAAAACCACCCAUCAACAGCUCGCAGUCAAG | 2.15 ± 0.131 log2 fold change |
| consensus (structured_RNA) RNA: GGUCACGUCUCAAUCAACUCCCAAAGGCUUUUUUCAGGGCCACCCAUCAACAGCUCGCAGUCAAG | 1.99 ± 0.171 log2 fold change |
| consensus (structured_RNA) RNA: GGUCACGUCUCAAUCAACUCCCAAAGGCCUUUUUGAGGGCCACCCAUCAACAGCUCGCAGUCAAG | 1.42 ± 0.169 log2 fold change |
| consensus (structured_RNA) RNA: GGUCACGUCUCAAUCAACUCCCAAAGGCCUUUUUUAGGGCCACCCAUCAACAGCUCGCAGUCAAG | 1.9 ± 0.154 log2 fold change |
| consensus (structured_RNA) RNA: GGUCACGUCUCAAUCAACUCCCAAAGGUCCUUCUGAGGGCCACCCAUCAACAGCUCGCAGUCAAG | 2.11 ± 0.151 log2 fold change |
| consensus (structured_RNA) RNA: GGUCACGUCUCAAUCAACUCCCAAAGGUUUUUUUGAAAGCCACCCAUCAACAGCUCGCAGUCAAG | 1.56 ± 0.147 log2 fold change |
| consensus (structured_RNA) RNA: GGUCACGUCUCAAUCAACUCCCAAAGGCCUUUUUUAAGGCCACCCAUCAACAGCUCGCAGUCAAG | 3.59 ± 0.129 log2 fold change |
| consensus (structured_RNA) RNA: GGUCACGUCUCAAUCAACUCCCAAAGGCUUUUCUGAAGGCCACCCAUCAACAGCUCGCAGUCAAG | 2 ± 0.133 log2 fold change |
| consensus (structured_RNA) RNA: GGUCACGUCUCAAUCAACUCCCAAAGGCUUUUUUCAGAGCCACCCAUCAACAGCUCGCAGUCAAG | 1.75 ± 0.155 log2 fold change |
| consensus (structured_RNA) RNA: GGUCACGUCUCAAUCAACUCCCAAAGGUUUUUUUGAAAACCACCCAUCAACAGCUCGCAGUCAAG | 2.28 ± 0.151 log2 fold change |
| consensus (structured_RNA) RNA: GGUCACGUCUCAAUCAACUCCCAAAGGCCUUUCUCAGGGCCACCCAUCAACAGCUCGCAGUCAAG | 1.93 ± 0.129 log2 fold change |
| consensus (structured_RNA) RNA: GGUCACGUCUCAAUCAACUCCCAAAGGCCUUUUUCAGGGCCACCCAUCAACAGCUCGCAGUCAAG | 2.4 ± 0.137 log2 fold change |
| consensus (structured_RNA) RNA: GGUCACGUCUCAAUCAACUCCCAAAGGUCUUUUUCAGGACCACCCAUCAACAGCUCGCAGUCAAG | 1.9 ± 0.145 log2 fold change |
| consensus (structured_RNA) RNA: GGUCACGUCUCAAUCAACUCCCAAAGGUCUUUUUAAGGACCACCCAUCAACAGCUCGCAGUCAAG | 1.91 ± 0.158 log2 fold change |
| consensus (structured_RNA) RNA: GGUCACGUCUCAAUCAACUCCCAAAGGCCUUUUUAAGGGCCACCCAUCAACAGCUCGCAGUCAAG | 2.24 ± 0.139 log2 fold change |

Reference: PMC5892938, “SARNAclust: Semi-automatic detection of RNA protein binding motifs from immunoprecipitation data”
